The results in this text go back to patent publication US20240043527A1 (BioNTech SE, priority 2020, published 2024).

The target of one data set is T1, CLDN-18.2 (Homo sapiens, UniProt P56856).
T1 construct: expressed in transfected cells; host or cells: HEK293
Description: Flow cytometric binding assay on CLDN-18.2+ HEK293 transfectants. The note with it: CHO-K1 supernatant on CLDN-18.2+ HEK293 transfectants. A general note: Flow cytometry measures light scatter and fluorescence of single cells or particles in a stream.

For data set [1], the system named is CLDN-18.2+ CHO-K1 transfectants. Description: In vitro CDC assay (luciferase-based). Type of data set: cell-based. Particulars: human serum, 2 hours, control CLDN-18.2-negative CHO-K1. Here is the method:
RiboMab01-containing cell culture supernatant from CHO-K1 cells lipofected with RB_RMAB01 was subjected to (Panel A) ADCC and (Panel B) CDC assays. […] Human PBMCs of three different healthy donors were utilized as effector cells (E:T ratio 30:1). Target or control and effector cells were incubated for 48 hours with the indicated RiboMab01 and IMAB362 reference protein concentrations. Specific cell lysis as determined in a luciferase-based assay is shown. […] Target and control cells were incubated with human serum and RiboMab01 concentrations as indicated for 2 hours. CDC determined in a luciferase-based assay is shown. Error bars are standard errors of the mean (n=3).
Mode of action analysis: Antibody-dependent cellular cytotoxicity (ADCC) and complement-dependent cytotoxicity (CDC) in vitro. […] To simulate in vivo conditions, human PBMCs from three different healthy donors were used as effector cells in ADCC assays in an effector to target (E:T) ratio of 30:1 and human serum (e.g., commercially available human serum) was used as a source of complement in CDC assays.

For data set [2], the system named is CLDN-18.2+ NUG-C4 transfectants. Description: Ex vivo ADCC assay with plasma of dosed mice. Type of data set: cell-based, human. Particulars: 1% plasma sampled 24 hours post 5th IV dosing of 1-30 μg RNA composition, 48 hours, E:T 30:1. How it is done: Plasma of mice dosed with five repetitive injections of either 1 μg (˜0.04 mg/kg), 3 μg (˜0.10 mg/kg), 10 μg (˜0.40 mg/kg) and 30 μg (˜1.20 mg/kg) RB_RMAB01 or 80 μg (˜3.20 mg/kg) of IMAB362 was sampled 24 hours post 5th injection and directed to luciferase-based ex vivo ADCC assays. Plasma of untreated mice spiked with IMAB362 served as assay reference. […] (Panel A) RiboMab01 mediated ADCC of NUG-C4 cells after 48 hours incubation with 1% of plasma is shown. […] Error bars are standard errors of the mean (n=3).
Plasma of untreated mice spiked with IMAB362 served as assay reference.

Data set [3] has the same test system. Description: Ex vivo ADCC assay with serum of dosed non-human primates. Type of data set: cell-based. Particulars: for ADCC target cell lysis: serum 24 hours and 168 hours post IV dosing of 0.1, 0.4, 1.6 mg/kg. How it is done:
(§1) Non-Human Primates (NHP) received three repetitive doses of 0.1, 0.4 or 1.6 mg/kg RB_RMAB01 once weekly. RiboMab01-containing serum of all monkeys sampled 24 hours (black bars) and 168 hours (white bars) post 1st injection was directed to luciferase-based ex vivo ADCC assays. […] Human PBMCs from two different healthy donors (24 h, donor 1, 168 h, donor 2) served as effector cells. (Panel A) RiboMab01-mediated ADCC of NUG-C4 cells after 48 hours incubation is shown. (Panel B) Unspecific lysis on target-negative MDA-MB-231 cells is shown. Error bars are standard error of the mean (n=3). (Panel C) Serum of NHP No. 14 (1.6 mg/kg RB_RMAB01, RiboMab01 serum concentration 232 μg/mL) collected 48 hours after the 3rd dosing was used for a luciferase-based ex vivo ADCC assays. […] Human PBMCs of a healthy donor served as effector cells. […] Incubation time was 48 hours. Error bars are standard errors of the mean (n=3).
(§2) ADCC assays were performed as described in Example 2. […] Purified IMAB362 served as assay reference protein.

For a further data set, the system named is MDA-MB-231 cells. Description: Ex vivo ADCC assay with serum of dosed non-human primates, target-negative control cells. The class given is cell-based. How it is done: as §1, §2
The subject of data set [4] is CLDN-18.2+ NCI-N87 xenograft tumors. Description: CLDN-18.2+ human gastric carcinoma xenograft tumor model. Type of data set: in vivo, mice. The note with it: IV injections of 1-30 μg RB_RMAB01 on test days 15, 22, 29, 36, 43 and 50. Here is the method: Median tumor growth of treatment and control groups is shown. Dotted lines indicate injections. Significance was calculated by Two-way ANOVA. Ns indicates not significant.

A short description of data set [5]: Single dose PK study in mice (ELISA). Type of data set: in vivo, Balb/cJRj mice. The note with it: single IV dose. Here is the method:
Balb/cJRj mice received a single IV injection of 1 μg (0.040 mg/kg), 3 μg (˜0.10 mg/kg), 10 μg (˜0.40 mg/kg) or 30 μg (˜1.20 mg/kg) RB_RMAB01 drug product and […] IMAB362 reference protein. Plasma was sampled 6, 24, 96, 168, 264, 336 and 504 hours post administration. RiboMab01 concentrations in plasma measured via ELISA are shown. Error bars are standard errors of the mean (n=3).
Background: An ELISA detects its analyte on a solid surface through an enzyme-linked reagent.

Data set [6] in a line: Single dose PK study in rats (ELISA). The class given is in vivo, RjHan:Wister rats. Particulars: single IV dose, post administration. Here is the method:
RjHan:Wister rats received a single IV injection of 0.04, 0.10, 0.40 or 1.20 mg/kg of RB_RMAB01 and 3.60 mg/kg of IMAB362 reference protein. Plasma was sampled 2, 6, 8, 10, 22, 24, 27, 30, 48, 72, 96, 168, 216, 264 and 336 hours post administration. RiboMab01 concentrations in plasma measured via ELISA are shown. Error bars are standard errors of the mean (n=3).

Data set [7] in a line: Repetitive dose PK study in mice (ELISA). The note with it: five weekly IV doses. Type of data set: in vivo, Balb/cJRj mice. Here is the method:
Balb/cJRj mice received IV injections of 1 μg (˜0.04 mg/kg), 3 μg (˜0.10 mg/kg), 10 μg (˜0.40 mg/kg) or 30 μg (˜1.20 mg/kg) RB_RMAB01 and 80 μg (˜3.20 mg/kg) IMAB362 reference protein at test days 1, 8, 15, 21 and 29. Plasma was sampled 24 hours pre- and 24 hours post-dosing. RiboMab01 concentrations in plasma measured via ELISA are shown. Dotted lines indicate injections. Error bars are standard errors of the mean (n=3).

The conditions of data set [8]: cynomolgus monkey, in vivo. Here is the method:
Furthermore, immunotoxicity in vivo was assessed as part of the repeated-dose toxicity study in mice and a pharmacokinetic study in cynomolgus monkey. All studies were designed in accordance with the ICH S8 guideline (Immunotoxicity studies for human pharmaceuticals).

A value given as a limit tells only on which side of the number the result lay.

For the substance “CLDN-18.2-targeting RiboMab: CLDN-18.2-targeting IgG antibody (IMAB362 delivered as ribonucleic acid) expressed from mRNAs encoding heavy and light chain”, the “binding to CLDN-18.2 polypeptide” value is recorded as “bound preferentially” in the data set with CLDN-18.2 and “binds target specific to CLDN-18.2” with CLDN-18.2 (listed as RiboMab01). For the same substance, the “CDC, cellular cytotoxicity” value in data set [1] is “target specific and dose-dependent cellular cytotoxicity comparable to the reference protein IMAB362”; in data set [1] (listed as RiboMab01) it was “high target specific cell cytotoxicity”. For the same substance, the “ADCC target cell lysis” value in data set [2] was “high and dose-dependent target cell lysis”; in [2] (listed as RiboMab01), “specific tumor cell lysis”; in [3], “high and dose-dependent target cell lysis”; in data set [3] (listed as RiboMab01), “dose-dependent ADCC”. In data set [3] (serum of monkey No. 14 (1.6 mg/kg) 48 hours after 3rd dosing or recombinant reference protein, 48 hours incubation), the EC50 is 0.066 nM. Also, the “ADCC EC50” value in data set [3] (serum of monkey No. 14, 48 hours after 3rd injection, 10-point dilution row) amounted to 0.01 mg/L. Further, the “unspecific lysis on control cells” value in the data set with MDA-MB-231 cells (FIG. 5 Panel C dilution row) is “weak unspecific lysis”. The “unspecific lysis on target-negative cells” value in the data set on MDA-MB-231 cells (NHP serum 24 h and 168 h post dosing) is “Low effector, donor-dependent unspecific lysis”. Besides, the “tumor growth inhibition in vivo (FIG. 6)” value in data set [4] is recorded as “tumor growth inhibition”. The entries for the “time RiboMab detectable post administration” value in data set [5] and in data set [5] (listed as CLDN-18.2-targeting antibody agent) were “up to 504 hours” and “up to 504 hours post dosing”, respectively. In addition, the “time of peak concentration” value in data set [6] came to 24 h. Moreover, the “peak plasma concentration of RiboMab” value in data set [7] (30 μg, 24 hours post-dosing) was no more than 1000 µg/mL. In data set [7], the “RiboMab levels on weekly administration” value is recorded as “Sustained CLDN-18.2-targeting RiboMab”. In addition, the systemic side effects result in [8] was “no systemic side effects such as diarrhea were observed”.

By EC50 is commonly meant the concentration giving half of the maximal effect.
